Measured values published in publication PMC3059893 (Biochemistry, 2011).
Read-outs that look alike come from different tables or passages of the source. Values belong to the molecule of their own block, whether it stands above or below them.

Experiments:
[1] = target: Syndecan1 (Homo sapiens); test: fluorescence anisotropy; settings: cited from earlier work
[2] = target: Neurexin1 (Homo sapiens); settings: cited from earlier work
[3] = target: Model peptide; test: NMR titration; settings: cited from earlier work
[4] = target: T1, Tiam1 peptide 3; test: fluorescence anisotropy
T1 chain: YAAKAFRF

[5] = target: T2, Tiam2 peptide 3; test: fluorescence anisotropy
T2 chain: YAALIHKF

[6] = target: T3, Caspr4 (Homo sapiens); test: fluorescence anisotropy
T3 chain: ENQKEYFF

[7] = target: T4, Model peptide; test: fluorescence anisotropy
T4 chain: SSRKEYYA

[8] = target: T5, Tiam2 peptide 2; test: fluorescence anisotropy
T5 chain: YAAGRKHF

[9] = target: T6, Syndecan1 (Homo sapiens); test: fluorescence anisotropy
T6 chain: TKQEEFYA

[10] = target: T7, Tiam1 peptide 2; test: fluorescence anisotropy
T7 chain: YAAEKYWA

[11] = target: T8, Neurexin1 (Homo sapiens); test: fluorescence anisotropy
T8 chain: NKDKEYYV

[12] = target: T9, Tiam1 peptide 1; test: fluorescence anisotropy
T9 chain: YAAYRYRA

Molecule: Tiam1 PDZ (from UniProt Q13009)
Kd [1]: 26.9 µM
Kd [2]: 2400 µM
Kd [3]: 112 µM

Kd [4]: 7.7 µM
Kd [5]: 28.7 µM
Kd [6]: 3.4 µM
Kd [7]: 24.1 µM
Kd [8]: 9.9 µM
Kd [9]: 200 µM
Kd [10]: 10.9 µM
Kd [11]: 5 µM
Kd [12]: 22.5 µM
B1: Tiam2 PDZ (protein)
chain: NVYDVQLTKTGSVCDFGFAVTAQVDERQHLSRIFISDVLPDGLAYGEGLRKGNEIMTLNGEAVSDLDLKQMEALFSEKSVGLTLIARPPDTKA
